Drawing on article PMC12102438, this text covers ratio to parent for 11 substances.

The target of this test is KHK4083. Nature of the test: BLI. The settings on record: 100 nmol/L KHK4083; parent: est. 1.0; read off a plot.
“Recombinant OX40-His protein (human OX40) (from UniProt P43489) T35A”: the ratio to parent was determined as 0.6.
Regarding “Recombinant OX40-His protein (human OX40) (from UniProt P43489) D40A”, the ratio to parent amounted to 2.
The result for “Recombinant OX40-His protein (human OX40) (from UniProt P43489) D34A” reads 0.8; that for “Recombinant OX40-His protein (human OX40) (from UniProt P43489) D117A”, 28; that for “Recombinant OX40-His protein (human OX40) (from UniProt P43489) Y119A”, 21.
In the case of “Recombinant OX40-His protein (human OX40) (from UniProt P43489) K120A”, the ratio to parent is 16.
Consider “Recombinant OX40-His protein (human OX40) (from UniProt P43489) S118A”, for which the ratio to parent was 6.4.
“Recombinant OX40-His protein (human OX40) (from UniProt P43489) S38A”: the ratio to parent was 1.
The result for “Recombinant OX40-His protein (human OX40) (from UniProt P43489) K82A” reads 15; that for “Recombinant OX40-His protein (human OX40) (from UniProt P43489) H30A”, 0.6.
Next, “Recombinant OX40-His protein (human OX40) (from UniProt P43489) Y36A”: 1.6.
